The values that follow are results of earlier work, collected in PMC6668730.

Series [1] deals with Histone H3 (Homo sapiens) (UniProt P68431).
Series [2] has the same target. The source holds these as a separate data set.
Series [3] has as its target Histone H3 (Drosophila melanogaster) (UniProt P02299).
Series [4] has as its target Histone H3 (Homo sapiens) (UniProt P68431). This is another data set of the same source.
The target of series [5] is Histone H3 (Drosophila melanogaster) (UniProt P02299). This is another data set of the same source.

Like-named read-outs stand apart in the source and are kept apart here.

Chain of GLP1 ankyrin repeats (Q9H9B1 737-1004): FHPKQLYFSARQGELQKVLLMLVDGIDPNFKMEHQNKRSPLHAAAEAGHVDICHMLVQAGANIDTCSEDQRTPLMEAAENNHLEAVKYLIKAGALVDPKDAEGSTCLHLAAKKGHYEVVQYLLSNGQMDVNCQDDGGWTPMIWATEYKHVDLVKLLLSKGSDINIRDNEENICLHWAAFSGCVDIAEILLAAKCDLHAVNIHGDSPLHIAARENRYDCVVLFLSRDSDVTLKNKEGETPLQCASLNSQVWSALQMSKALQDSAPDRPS
Chain of G9a ankyrin repeats (Q96KQ7 649-879): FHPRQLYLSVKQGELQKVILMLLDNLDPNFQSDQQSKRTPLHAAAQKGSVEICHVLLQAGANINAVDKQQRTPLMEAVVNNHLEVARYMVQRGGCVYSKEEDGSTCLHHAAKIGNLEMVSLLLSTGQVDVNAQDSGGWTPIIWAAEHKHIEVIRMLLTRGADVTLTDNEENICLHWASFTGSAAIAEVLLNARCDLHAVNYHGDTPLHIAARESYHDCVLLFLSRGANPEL

Broadly, the Kd is the constant that tells how readily two partners part at equilibrium. Take BPTF PHD finger (from UniProt Q12830): the results for the Kd in series [1] and in series [2] were 5 µM and 2700 nM, respectively. Take “G9a ankyrin repeats (from UniProt Q96KQ7)”: the Kd in series [3] is 6 µM. Regarding “GLP1 ankyrin repeats (from UniProt Q9H9B1)”, the Kd in series [4] is 5 µM; in series [5] it was 7 µM.
